Measured values: the supplement of paper PMC10567573

B1: DULLARD (parent)
chain: LVVFTASMEIYGSAVADKLDNSRS
B2: MIA2 (parent)
chain: DMVSNIELPTRIHEEVYFEPSSSK

Variants of: B1
Assay: protein stability index of a GFP-peptide fusion (GPS, HEK-293T) (PSI 1-6); higher = more stable
Settings: c terminus: a fixed tail appended
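Further: lentivirally expressed fusions sorted by FACS into six bins by GFP to DsRed ratio, PSI derived from sequencing read proportions per bin multiplied by bin number.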

Protein stability index: each site, then its substitutions
T5: S 3.15; F 2.49; Q 2.37; E 2; P 1.66; V 3.31; H 1.99; N 1.76; M 3.54; A 2.22; R 2.6; D 2.09
S7: D 1.55; H 3.69; F 2.06; K 2.07; T 2.48; P 1.93; M 2.8; A 1.85; V 2.27; I 4.7; G 1.24; C 3.12; N 2.14
V3: R 2.23; C 2.03; F 2.15; A 2.48; M 3.28; D 3.23; T 1.99; H 2.21; E 2.33; L 1.71; Y 2.68; N 2.75; W 1.56; Q 2.62; G 2.75; K 2; P 3.51; S 1.86
L1: P 3.74; N 2.9; G 2.31; Y 2.57; E 2.25; H 1.19; C 1.94; R 2.49; Q 2.52; D 2.44; V 3.46; S 1.94; F 2; A 1.73; K 2.09; M 2.29; T 1.82
M8: T 1.82; Y 2.64; R 1.9; H 2.98; S 1.02; F 3.03; G 1.31; E 1.83; A 1.59; L 2.01; W 1.05; I 4.57; P 1.18; N 1.65; C 1.14; Q 1.49; D 2.65; V 2.73; K 1.96
E9: V 3; R 2.71; D 2.27; W 2.46; L 3.73; A 2.72; C 2.96; N 1.74; P 3.01; F 2.73
V2: D 3.02; T 1.72; N 2.5; S 2.35; C 1.61; E 2.46; I 2.18; K 1.78; W 3.1; G 2.52; M 2.25; Q 1.96; H 2.16; R 2.25; L 1.99; P 2.93; A 2.1
A6: H 2.33; N 1.53; Q 2.02; I 4.3; K 1.41; L 2.11; G 1.57; P 1.43; D 1.47; T 2.8; C 2.65; Y 2.47; R 2.08; E 1.54
F4: D 2.05; T 1.56; Y 2.93; H 2.78; N 2.4; K 2.91; W 3.77; S 2.34; E 2.27; I 3.55; G 2.24; C 1.08; A 1.61; R 2.14; Q 2.78; P 3.61
I10: C 1.75; A 1.05

Variants of: B2
Assay: as above
Settings: c terminus: a fixed tail appended

Protein stability index of substitutions, site by site:
S22: G 3.85; E 4.13; D 4.25; I 3.13; A 4.28; L 2.58; H 4.35; W 3.17; P 4.02; F 3.37; C 3.89; N 4.12; T 4.03; R 3.73; V 3.95; K 3.9; Y 3.08; Q 4.13; M 3.81
K24: N 4.17; T 4.02; L 3.84; C 3.66; G 4.55; Y 3.32; A 3.64; F 3.28; W 2.52; P 4.08; H 3.56; Q 4.89; S 3.95; M 3.57; V 3.51; I 2.98; R 3.85; E 4.11
S21: M 3.4; E 4.64; R 3.13; C 3.71; V 3.94; I 4; A 3.71; Q 3.9; G 4.47; Y 3.05; T 3.75; D 4.56; W 3.38; N 4.19; P 4.3; K 3.46; L 3.34; F 3.56; H 3.97
Y17: H 4.29; T 4.28; N 4.32; V 4.3; W 4.21; Q 4.26; E 4.95; R 5.01; A 3.67; D 4.41; P 4.97; S 4.06; K 4.27; C 4.52; L 4.29; F 4.35; G 4.47; I 3.94; M 3.73
V16: E 5.02; S 4.02; I 3.87; G 4.16; Q 4.02; H 3.55; K 3.89; A 4.26; W 3.73; P 4.12; L 4.09; T 4.05; R 3.17; F 3.87; N 4.47; M 3.46; C 4.33; D 4.77; Y 3.49
E15: G 3.84; F 2.62; M 2.72; W 2.75; A 3.35; H 3.63; V 2.6; S 3.54; N 3.29; P 2.96; T 3.9; Y 3.22; I 2.28; R 2.96; D 4.45; K 3.52; L 3.27; Q 3.44; C 2.97
S23: K 3.65; T 3.92; V 3.82; C 4; A 3.2; N 3.98; M 3.29; P 3.67; I 3.89; Y 4.18; E 5.16; H 3.96; W 3.08; Q 4.41; L 3.49; R 3.56; D 4.84; G 4.28; F 3.11
E14: Y 1.86; P 3.16; T 3.07; Q 3.43; W 2.88; S 3.29; R 2.98
F18: I 4.52; Q 5.12; Y 4.76; K 3.51; P 4.23; V 3.8; L 4.5; E 4.68; A 4.12; C 3.59; D 5.29; N 4.68; H 4.64; G 4.63; S 4.62; W 3.52; T 4.63; M 4.48; R 4.28
E19: C 2.96; F 2.86; Q 3.29; N 3.41; I 2.64; G 3.09; S 3.82; W 2.72; P 3.52; K 3.54; T 3.4; D 3.38; Y 2.87; H 3.14; M 3.31; A 3.53; L 3.63; R 3.29; V 3.15
P20: M 1.88; F 2.42; V 2.56; Q 4.02; E 4.28; W 2.63; A 3.69; H 4.06; I 3.02; S 3.52; L 2.72; D 4.6; N 4.12; T 3.62; Y 2.99; C 3.42; G 4.16; R 4.18; K 3.84
